This note sets out measurements from patent US20200190189A1.

Experiment [1] deals with Human CD3 on T cells in donor PBMC (human) (UniProt P07766). Put plainly: cell-based or functional assay.
The target of experiment [2] is Cynomolgus CD3εδ heterodimeric Fc fusion (cynomolgus). The experiment is described as follows: ForteBio BLI, Fab KD, monovalent. In general terms: BLI is a label-free optical method that tracks binding on a fibre tip over time.
Experiment [3] concerns the target Human CD3εδ heterodimeric Fc fusion (human). Put plainly: ForteBio BLI, Fab KD, monovalent.

Sequence of Human CD3 on T cells in donor PBMC (human) (P07766 23-207): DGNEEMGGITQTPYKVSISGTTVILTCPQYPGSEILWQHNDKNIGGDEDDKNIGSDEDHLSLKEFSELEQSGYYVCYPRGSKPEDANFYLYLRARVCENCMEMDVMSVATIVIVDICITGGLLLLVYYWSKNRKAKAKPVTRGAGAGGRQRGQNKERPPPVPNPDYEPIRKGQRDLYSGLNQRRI

B1: ADI-26954 Fab (Fab, from a related filing, V domains shown)
VH: QVQLVQSGAEVKKPGASVKVSCKASGFNIKDYYMHWVRQAPGQRLEWMGWIDLENANTIYDAKFQGRVTITRDTSASTAYMELSSLRSEDTAVYYCARDNYGGYFYDVWGQGTLVTVSS
VL: DIVMTQSPDSLAVSLGERATINCKSSQSLLESRTGKNYLAWYQQKPGQPPKLLIYWASTRESGVPDRFSGSGSGTDFTLTISSLQAEDVAVYYCKQSYSLRTFGGGTKVEIK
Regarding B1, in experiment [1], the D5801 10 nM Fab IFNg was 0 pg/mL; the Fab IFNg, donor A4560 PBMC, 0.3 nM worked out at 0 pg/mL; the Fab IFNg, donor A4560 PBMC, 10 nM was 0 pg/mL; the Fab IFNg, donor D5801 PBMC, 0.3 nM is 0 pg/mL.

B2: ADI-26941 Fab (Fab, from a related filing, V domains shown)
VH: QVQLVQSGAEVKKPGASVKVSCKASGFNIKDYYMHWVRQAPGQRLEWMGWIDLEEGNTIYDAKFQGRVTITRDTSASTAYMELSSLRSEDTAVYYCARDQYGRYFYDVWGQGTLVTVSS
VL: DIVMTQSPDSLAVSLGERATINCKSSQSLLNARTGKNYLAWYQQKPGQPPKLLIYWASTRESGVPDRFSGSGSGTDFTLTISSLQAEDVAVYYCKQSYSIRTFGGGTKVEIK
In general, Kd refers to the constant that tells how readily two partners part at equilibrium. Higher therefore signals a looser complex. As to B2, in experiment [1], the D5801 10 nM Fab IFNg was found to be 0 pg/mL. For the same molecule, the Kd in experiment [2] amounted to 220 nM; in experiment [3] it was 1100 nM.

B3: ADI-26928 Fab (Fab, from a related filing, V domains shown)
VH: QVQLVQSGAEVKKPGASVKVSCKASGFNIKDYYMHWVRQAPGQRLEWMGWIDLEEGNTIYDAKFQGRVTITRDTSASTAYMELSSLRSEDTAVYYCGRDAYGLYFYDVWGQGTLVTVSS
VL: DIVMTQSPDSLAVSLGERATINCKSSQSLLNARTGKNYLAWYQQKPGQPPKLLIYWASTRESGVPDRFSGSGSGTDFTLTISSLQAEDVAVYYCKQSYSLRTFGGGTKVEIK
On to B3, for which the Fab IFNg, donor D5801 PBMC, 10 nM in experiment [1] worked out at 0 pg/mL.
